In patent US20110294740A1 (RESEARCH FOUNDATION FOR THE STATE UNIVERSITY OF NEW YORK, published 2011):

B1: myelin basic protein (purified MBP) (other, human, UniProt P02686-5 2-171, looked up)
chain: ASQKRPSQRHGSKYLATASTMDHARHGFLPRHRDTGILDSIGRFFGGDRGAPKRGSGKDSHHPARTAHYGSLPQKSHGRTQDENPVVHFFKNIVTPRTPPPSQGKGRGLSLSRFSWGAEGQRPGFGYGGRASDYKSAHKGFKGVDAQGTLSKIFKLGGRDSRSGSPMARR
notes: also called intact MBP

Assays:
wild-type Aβ42 peptide = molecular target: T1, wild-type Aβ42 peptide (UniProt P05067 672-713); test: SPR, Aβ peptide immobilised, MBP as analyte
T1 construct: domain: Aβ42; Free in co-immunoprecipitation; also called Aβ42WT

[1] = molecular target: B1; test: dot blot: peptide immobilised on nitrocellulose, incubated with MBP, detected with mAb 384
Experimental: Dot Blot Analysis. […] Insulin (Sigma) was resuspended to 2 mg/ml in water at pH 2.0 and diluted to 2 μg/ml in Tris-buffered saline. 1 μg of each was immobilized onto Hybond ECL nitrocellulose membranes using a Bio-Dot microfiltration apparatus (Bio-Rad) according to the manufacturer's instructions. Each membrane was removed from the apparatus following immobilization and blocked overnight in 5% BSA and PBS at 4° C. […] The membrane was washed 3×10 min with 5% BSA, PBS, and 0.05% Tween 20 and incubated with mAb 384 (1:2000 dilution) for 1 h at room temperature. The membrane was next washed […] with PBS and 0.05% Tween 20 and incubated with horseradish peroxidase-conjugated sheep antimouse IgG (1:2000 dilution) for 1 h at room temperature. Detection and quantitation were performed as described above.

T1 sequence (P05067 672-713 limits assumed): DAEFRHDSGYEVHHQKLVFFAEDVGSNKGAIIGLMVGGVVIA

| Binder | Kd (wild-type Aβ42 peptide) | binding result [1] |
| --- | --- | --- |
| B1 | 43 nM |  |
| PEERHLSKMQQNGYENPTYK (also called AβPP-(744-763)) [APP 744-763] |  | no binding (tested: 1 g/ml MBP (as printed in paragraph 99)) |
| RGRKQCKTHPHFVIPYRCLV [APP 100-119] |  | no binding (tested: 1 g/ml MBP (as printed in paragraph 99)) |
